Laboratory results: patent US20240209076A1 (KODIAK SCIENCES, published 2024)
Numbering of substitutions follows the chain as printed. Names and notes keep the numbering of the source. Each block holds one binder with its values, some of them ahead of it.

Experiments:
[1] = target: recombinant human IL-6 (human, UniProt P05231 30-212); assay: SPR, IL-6 on CM5 chip, Fab lysate, 25 C
Protocol: Three ranges of antigen density (100-150 RU, 300-400 RU, 400-600 RU) were obtained by using variable flow times for each chip channel, later blocked with ethanolamine. Supernatants of the 96-well filtered culture lysates were injected at 50 μL/min for 120 seconds. Fitting of dissociation curves (300 seconds) to single exponential decay curve was used for the determination of dissociation rates (koff). Chip surfaces were regenerated with 10 mM Glycine pH 1.7 solution injected at 50 μL/min during 60 seconds after every cycle of sample binding and dissociation.

[2] = target: human IL-6 (human, UniProt P05231 30-212); assay: SPR (Biacore), supernatant antibody on Protein A chip, IL-6 flowed, 37 C
Protocol: Antibodies were captured on a Protein A chip (GE) by injecting 1:20 cell supernatant dilutions at 10 μL/min for 60 seconds. […] The sensor chip was regenerated by a 60 seconds injection of 10 mM Glycine pH 1.7 at the flow rate of 50 μL/min. […] For this setup, 1 μg/mL of purified antibody was injected over a Protein A chip at 10 μL/min for 25 seconds. […] The sensor chip was regenerated by a 60 seconds injection of 10 mM Glycine pH 1.7 at flow rate of 50 μL/min. Data analysis for supernatant and purified samples were performed using BIAevaluation software (GE). All sensorgrams were double reference subtracted and fit using a 1:1 Langmuir binding model.

human IL-6, sequence (P05231 30-212 limits assumed): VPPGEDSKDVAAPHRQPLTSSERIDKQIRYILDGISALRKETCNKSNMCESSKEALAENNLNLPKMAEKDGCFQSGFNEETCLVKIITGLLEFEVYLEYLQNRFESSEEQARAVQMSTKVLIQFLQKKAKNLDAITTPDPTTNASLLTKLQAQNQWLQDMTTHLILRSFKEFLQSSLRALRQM
recombinant human IL-6, sequence (P05231 30-212 limits assumed): as above

B1: anti-IL-6 Fab, parental molecule (Fab, V domains shown)
VH: EVQLVESGGGLVQPGGSLRLSCAASGFTFSPFAMSWVRQAPGKGLEWVAKISPGGSWTYYSDTVTGRFTFSLDTSKSTAYLQMNSLRAEDTAVYYCARQLWGYYALDIWGQGTLVTVSS
VL: DIQLTQSPSSLSASVGDRVTITCSASISVSYMYWYQQKPGKAPKLLIYDMSNLASGVPSRFSGSGSGTDFTLTISSLQPEDFATYYCMQWSGYPYTFGQGTKVEIK
notes: Fab expressed in E. coli TG1, tested as filtered lysate; also called wild-type; parent molecule
koff [1]: 0.00494 s⁻¹

B2: anti-IL-6 Fab, heavy chain F27G (Fab, V domains shown)
VH: B1 VH with F27G
VL: B1 VL
notes: see m39
koff [1]: 0.00401 s⁻¹

B4: anti-IL-6 Fab, heavy chain F32G (Fab, V domains shown)
VH: B1 VH with F32G
VL: B1 VL
notes: see m39
koff [1]: 0.00525 s⁻¹

B6: anti-IL-6 Fab, heavy chain D62Q (Fab, V domains shown)
VH: B1 VH with D62Q
VL: B1 VL
notes: see m39
koff [1]: 0.00434 s⁻¹

B8: anti-IL-6 Fab, heavy chain A49T (Fab, V domains shown)
VH: B1 VH with A49T
VL: B1 VL
notes: see m39
koff [1]: 0.00575 s⁻¹

B12: anti-IL-6 Fab, heavy chain A49S (Fab, V domains shown)
VH: B1 VH with A49S
VL: B1 VL
notes: see m39
koff [1]: 0.0054 s⁻¹

B19: anti-IL-6 Fab, heavy chain F32V (Fab, V domains shown)
VH: B1 VH with F32V
VL: B1 VL
notes: see m39
koff [1]: 0.00541 s⁻¹

B20: anti-IL-6 Fab, heavy chain F29H (Fab, V domains shown)
VH: B1 VH with F29H
VL: B1 VL
notes: see m39
koff [1]: 0.00524 s⁻¹

B22: anti-IL-6 Fab, heavy chain G26R (Fab, V domains shown)
VH: B1 VH with G26R
VL: B1 VL
notes: see m39
koff [1]: 0.00381 s⁻¹

B24: anti-IL-6 Fab, heavy chain G26S (Fab, V domains shown)
VH: B1 VH with G26S
VL: B1 VL
notes: see m39
koff [1]: 0.00375 s⁻¹

B26: anti-IL-6 Fab, heavy chain F27P (Fab, V domains shown)
VH: B1 VH with F27P
VL: B1 VL
notes: see m39
koff [1]: 0.00418 s⁻¹

B27: anti-IL-6 Fab, heavy chain F27R (Fab, V domains shown)
VH: B1 VH with F27R
VL: B1 VL
notes: see m39
koff [1]: 0.00394 s⁻¹

B32: anti-IL-6 Fab, heavy chain F27V (Fab, V domains shown)
VH: B1 VH with F27V
VL: B1 VL
notes: see m39
koff [1]: 0.00405 s⁻¹

B34: anti-IL-6 Fab, heavy chain F29Y (Fab, V domains shown)
VH: B1 VH with F29Y
VL: B1 VL
notes: see m39
koff [1]: 0.00511 s⁻¹

B35: anti-IL-6 Fab, heavy chain F27S (Fab, V domains shown)
VH: B1 VH with F27S
VL: B1 VL
notes: see m39
koff [1]: 0.00393 s⁻¹

B36: anti-IL-6 Fab, heavy chain G66D (Fab, V domains shown)
VH: B1 VH with G66D
VL: B1 VL
notes: see m39
koff [1]: 0.00607 s⁻¹

Other lines, results leading:

Kd [2]: 0.601 nM
koff [2]: 0.00108 s⁻¹
kon [2]: 1.79e+06 M⁻¹ s⁻¹
B3: anti-IL-6 antibody, heavy chain T65P, G66D / light chain M32L, M50D, N52S, M88Q (antibody, human IgG1, V domains shown)
VH: B1 VH with T65P, G66D
VL: B1 VL with M32L, M50D, N52S, M88Q
notes: Human IgG1

Kd [2]: 0.31 nM
koff [2]: 0.000441 s⁻¹
kon [2]: 1.42e+06 M⁻¹ s⁻¹
B5: anti-IL-6 antibody, heavy chain T65S, G66D / light chain M32L, M50D, N52S, M88Q (antibody, human IgG1, V domains shown)
VH: B1 VH with T65S, G66D
VL: B1 VL with M32L, M50D, N52S, M88Q
notes: Human IgG1

Kd [2]: 0.241 nM
koff [2]: 0.000459 s⁻¹
kon [2]: 1.91e+06 M⁻¹ s⁻¹
B7: anti-IL-6 antibody, heavy chain T63Y, G66D / light chain M32L, M50D, N52S, M88Q (antibody, human IgG1, V domains shown)
VH: B1 VH with T63Y, G66D
VL: B1 VL with M32L, M50D, N52S, M88Q
notes: Human IgG1

Kd [2]: 0.465 nM
koff [2]: 0.00048 s⁻¹
kon [2]: 1.03e+06 M⁻¹ s⁻¹
B9: anti-IL-6 antibody, heavy chain T65D, G66D / light chain M32L, M50D, N52S, M88Q (antibody, human IgG1, V domains shown)
VH: B1 VH with T65D, G66D
VL: B1 VL with M32L, M50D, N52S, M88Q
notes: Human IgG1

Kd [2]: 0.327 nM
koff [2]: 0.000532 s⁻¹
kon [2]: 1.63e+06 M⁻¹ s⁻¹
B10: anti-IL-6 antibody, heavy chain T65R, G66D / light chain M32L, M50D, N52S, M88Q (antibody, human IgG1, V domains shown)
VH: B1 VH with T65R, G66D
VL: B1 VL with M32L, M50D, N52S, M88Q
notes: Human IgG1

Kd [2]: 0.291 nM
koff [2]: 0.000391 s⁻¹
kon [2]: 1.34e+06 M⁻¹ s⁻¹
B11: anti-IL-6 antibody, heavy chain T65F, G66D / light chain M32L, M50D, N52S, M88Q (antibody, human IgG1, V domains shown)
VH: B1 VH with T65F, G66D
VL: B1 VL with M32L, M50D, N52S, M88Q
notes: Human IgG1

Kd [2]: 0.281 nM
koff [2]: 0.000551 s⁻¹
kon [2]: 1.96e+06 M⁻¹ s⁻¹
B13: anti-IL-6 antibody, heavy chain T65V, G66D / light chain M32L, M50D, N52S, M88Q (antibody, human IgG1, V domains shown)
VH: B1 VH with T65V, G66D
VL: B1 VL with M32L, M50D, N52S, M88Q
notes: Human IgG1

Kd [2]: 0.322 nM
koff [2]: 0.000384 s⁻¹
kon [2]: 1.19e+06 M⁻¹ s⁻¹
B14: anti-IL-6 antibody, heavy chain T65W, G66D / light chain M32L, M50D, N52S, M88Q (antibody, human IgG1, V domains shown)
VH: B1 VH with T65W, G66D
VL: B1 VL with M32L, M50D, N52S, M88Q
notes: Human IgG1

Kd [2]: 0.237 nM
koff [2]: 0.000367 s⁻¹
kon [2]: 1.55e+06 M⁻¹ s⁻¹
B15: anti-IL-6 antibody, heavy chain T65Y, G66D / light chain M32L, M50D, N52S, M88Q (antibody, human IgG1, V domains shown)
VH: B1 VH with T65Y, G66D
VL: B1 VL with M32L, M50D, N52S, M88Q
notes: Human IgG1

koff [1]: 0.00315 s⁻¹
B16: anti-IL-6 Fab, heavy chain I51R (Fab, V domains shown)
VH: B1 VH with I51R
VL: B1 VL
notes: see m39

Kd [2]: 0.311 nM
koff [2]: 0.000477 s⁻¹
kon [2]: 1.53e+06 M⁻¹ s⁻¹
B17: anti-IL-6 antibody, heavy chain T65G, G66D / light chain M32L, M50D, N52S, M88Q (antibody, human IgG1, V domains shown)
VH: B1 VH with T65G, G66D
VL: B1 VL with M32L, M50D, N52S, M88Q
notes: Human IgG1

koff [1]: 0.0034 s⁻¹
B18: anti-IL-6 Fab, heavy chain I108F (Fab, V domains shown)
VH: B1 VH with I108F
VL: B1 VL
notes: see m39

Kd [2]: 0.273 nM
koff [2]: 0.000526 s⁻¹
kon [2]: 1.92e+06 M⁻¹ s⁻¹
B21: anti-IL-6 antibody, heavy chain T63R, G66D / light chain M32L, M50D, N52S, M88Q (antibody, human IgG1, V domains shown)
VH: B1 VH with T63R, G66D
VL: B1 VL with M32L, M50D, N52S, M88Q
notes: Human IgG1

Kd [2]: 0.286 nM
koff [2]: 0.000449 s⁻¹
kon [2]: 1.57e+06 M⁻¹ s⁻¹
B23: anti-IL-6 antibody, heavy chain T63W, G66D / light chain M32L, M50D, N52S, M88Q (antibody, human IgG1, V domains shown)
VH: B1 VH with T63W, G66D
VL: B1 VL with M32L, M50D, N52S, M88Q
notes: Human IgG1

Kd [2]: 0.356 nM
koff [2]: 0.000579 s⁻¹
kon [2]: 1.63e+06 M⁻¹ s⁻¹
B25: anti-IL-6 antibody, heavy chain T65K, G66D / light chain M32L, M50D, N52S, M88Q (antibody, human IgG1, V domains shown)
VH: B1 VH with T65K, G66D
VL: B1 VL with M32L, M50D, N52S, M88Q
notes: Human IgG1

Kd [2]: 0.274 nM
koff [2]: 0.00043 s⁻¹
kon [2]: 1.57e+06 M⁻¹ s⁻¹
B28: anti-IL-6 antibody, heavy chain T63V, G66D / light chain M32L, M50D, N52S, M88Q (antibody, human IgG1, V domains shown)
VH: B1 VH with T63V, G66D
VL: B1 VL with M32L, M50D, N52S, M88Q
notes: Human IgG1

Kd [2]: 0.239 nM
koff [2]: 0.000542 s⁻¹
kon [2]: 2.27e+06 M⁻¹ s⁻¹
B29: anti-IL-6 antibody, heavy chain T65A, G66D / light chain M32L, M50D, N52S, M88Q (antibody, human IgG1, V domains shown)
VH: B1 VH with T65A, G66D
VL: B1 VL with M32L, M50D, N52S, M88Q
notes: Human IgG1

Kd [2]: 0.278 nM
koff [2]: 0.000499 s⁻¹
kon [2]: 1.8e+06 M⁻¹ s⁻¹
B30: anti-IL-6 antibody, heavy chain T63S, G66D / light chain M32L, M50D, N52S, M88Q (antibody, human IgG1, V domains shown)
VH: B1 VH with T63S, G66D
VL: B1 VL with M32L, M50D, N52S, M88Q
notes: Human IgG1

koff [1]: 0.00601 s⁻¹
B31: anti-IL-6 Fab, heavy chain L106F (Fab, V domains shown)
VH: B1 VH with L106F
VL: B1 VL
notes: see m39

Kd [2]: 0.297 nM
koff [2]: 0.000423 s⁻¹
kon [2]: 1.43e+06 M⁻¹ s⁻¹
B33: anti-IL-6 antibody, heavy chain T65H, G66D / light chain M32L, M50D, N52S, M88Q (antibody, human IgG1, V domains shown)
VH: B1 VH with T65H, G66D
VL: B1 VL with M32L, M50D, N52S, M88Q
notes: Human IgG1

Kd [2]: 0.293 nM
koff [2]: 0.000446 s⁻¹
kon [2]: 1.53e+06 M⁻¹ s⁻¹
B37: anti-IL-6 antibody, heavy chain T65L, G66D / light chain M32L, M50D, N52S, M88Q (antibody, human IgG1, V domains shown)
VH: B1 VH with T65L, G66D
VL: B1 VL with M32L, M50D, N52S, M88Q
notes: Human IgG1

koff [1]: 0.00505 s⁻¹
B38: anti-IL-6 Fab, heavy chain G66E (Fab, V domains shown)
VH: B1 VH with G66E
VL: B1 VL
notes: see m39

Kd [2]: 0.279 nM
koff [2]: 0.000474 s⁻¹
kon [2]: 1.7e+06 M⁻¹ s⁻¹
B39: anti-IL-6 antibody, heavy chain T65E, G66D / light chain M32L, M50D, N52S, M88Q (antibody, human IgG1, V domains shown)
VH: B1 VH with T65E, G66D
VL: B1 VL with M32L, M50D, N52S, M88Q
notes: Human IgG1
